Results on 1 protein are retold here after paper PMC3542637 (Biochemistry, 2012).

This data set deals with the molecule itself. Description: crystal structure.

B1: L-fucose dehydrogenase BmulJ_04919 from Burkholderia multivorans ATCC 17616 (enzyme, UniProt A0A0H3KNE7 1-258, looked up)
chain: MDLNLQDKVVIVTGGASGIGGAISMRLAEERAIPVVFARHAPDGAFLDALAQRQPRATYLPVELQDDAQCRDAVAQTIATFGRLDGLVNNAGVNDGIGLDAGRDAFVASLERNLIHYYAMAHYCVPHLKATRGAIVNISSKTAVTGQGNTSGYCASKGAQLALTREWAVALREHGVRVNAVIPAEVMTPLYRNWIATFEDPEAKLAEIAAKVPLGRRFTTPDEIADTAVFLLSPRASHTTGEWLFVDGGYTHLDRALV
A word on the stoichiometry N: it is a count of units in the complex or per binding partner. In the case of B1, the “stoichiometry N” value is 4.
